Measurements as given in paper PMC6391532.

Assays:
Experiment in all cases: SEC
[1] = target: DENV2C L54S (dengue virus 2)
[2] = target: dengue virus 2 capsid protein (DENV2C), wild type (dengue virus 2)
[3] = target: DENV2C L50S (dengue virus 2)
[4] = target: DENV2C I88N (dengue virus 2)
[5] = target: DENV2C L81N (dengue virus 2)

DENV2C L54S (natural protein)
stoichiometry N [1]: 2

dengue virus 2 capsid protein (DENV2C), wild type (natural protein)
stoichiometry N [2]: 2

DENV2C L50S (natural protein)
stoichiometry N [3]: 2

DENV2C I88N (natural protein)
stoichiometry N [4]: 2

DENV2C L81N (natural protein)
stoichiometry N [5]: 2
